Here are results for one molecule from article PMC6901939, “A Novel Single Domain Antibody Targeting FliC Flagellin of Salmonella enterica for Effective Inhibition of Host Cell Invasion” (Frontiers in Microbiology, 2019).

This assay addresses T1, FliC flagellin of S. enterica serovar Typhimurium (Salmonella enterica serovar …, UniProt P06179).
T1 construct: FliC flagellin, Salmonella enterica serovar Typhimurium; also called purified FliC; source: bought: Sigma-Aldrich
Briefly: BLI; sdAb immobilized on nickel-charged biosensors and dipped into FliC at 250, 125, 62.5, 31.3 and 15.6 nM. The settings on record: both partners purified. A general note: In BLI a coated tip is dipped into the sample, and binding shifts an interference pattern.

T1 sequence (P06179 whole entry): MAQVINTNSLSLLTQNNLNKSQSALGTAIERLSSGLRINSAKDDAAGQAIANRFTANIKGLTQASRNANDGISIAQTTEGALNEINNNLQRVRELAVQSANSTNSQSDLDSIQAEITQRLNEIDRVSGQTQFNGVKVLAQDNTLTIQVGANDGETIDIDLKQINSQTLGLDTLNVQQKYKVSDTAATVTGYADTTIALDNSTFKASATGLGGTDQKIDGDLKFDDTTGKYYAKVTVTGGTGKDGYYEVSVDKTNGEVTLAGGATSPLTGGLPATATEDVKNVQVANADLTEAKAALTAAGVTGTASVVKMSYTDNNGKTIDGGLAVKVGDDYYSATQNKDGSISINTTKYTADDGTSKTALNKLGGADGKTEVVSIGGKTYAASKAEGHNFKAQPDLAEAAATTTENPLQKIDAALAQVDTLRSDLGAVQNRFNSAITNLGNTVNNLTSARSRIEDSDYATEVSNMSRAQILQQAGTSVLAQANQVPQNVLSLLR

B1: Abi-Se07 (VHH)
VHH: QVQLVESGGGLVQAGGSLRLSCTDSGRTFSVKPMGWFRQAPGMEREFVAAASFTGVSTFYADSVKDRFTIFRDKDKNTMDLQINSLKPEDTGAYYCAGTTRTLWGSKWRDVLEYEYWGQGTQVTVSS
notes: X2 = V or K), CDR2 ASX3TGVST (X3 = F or Y), CDR3 AGTX4RTLWGSKWRDX5X6EYEY (X4 = T or L; X5 = V or R; X6 = L or R); CDR3 is 20 amino acids long; The c-myc tag lies between the VHH and the His6 tag, so it probably stayed on the protein; Gene synthesized and cloned into pET27b; also called 0A07; anti-Salmonella sdAb; not shown: His6, C-terminal, kept
By Kd is commonly meant the equilibrium constant for the complex coming apart. B1 yielded a Kd of 16.2 nM.
